Results taken from article PMC3229523, “Identification of Lactoferricin B Intracellular Targets Using an Escherichia coli Proteome Chip” (PLoS ONE, 2011).
Ends that are not written are not given here. * marks the point of attachment. Biotin = O=C1N[C@H]2[C@H](CS[C@H]2CCCCC(=O)*)N1

What was measured:
Test in all cases: peptide or protein array; E. coli proteome chip: purified His-tagged proteins printed in duplicate on Fullmoon slides, blocked with 1% BSA; 10 nM N-terminal biotinylated LfcinB with 1% BSA, room temperature, 1 h; detected with DyLight 649-labeled streptavidin, ratio to DyLight 549-labeled anti-His antibody; ProCAT normalisation, local cut-off; triplicate chips
Settings in all cases: both partners purified
YbeQ = molecular target: T1, YbeQ (E. coli K-12, UniProt P77234 1-325)
T1 construct: YbeQ, E. coli K-12
T1 sequence (looked up): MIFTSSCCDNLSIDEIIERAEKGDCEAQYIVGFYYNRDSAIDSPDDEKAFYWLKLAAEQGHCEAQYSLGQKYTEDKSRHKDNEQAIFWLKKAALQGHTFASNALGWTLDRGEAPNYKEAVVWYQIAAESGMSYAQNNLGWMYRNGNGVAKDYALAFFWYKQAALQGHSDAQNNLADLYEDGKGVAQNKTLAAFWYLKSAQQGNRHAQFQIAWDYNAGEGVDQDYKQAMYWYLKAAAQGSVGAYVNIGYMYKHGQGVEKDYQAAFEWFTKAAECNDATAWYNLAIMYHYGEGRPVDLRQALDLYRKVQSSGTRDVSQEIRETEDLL

GldA = molecular target: T2, GldA (E. coli K-12, UniProt P0A9S5 1-367)
T2 construct: GldA, E. coli K-12
T2 sequence (looked up): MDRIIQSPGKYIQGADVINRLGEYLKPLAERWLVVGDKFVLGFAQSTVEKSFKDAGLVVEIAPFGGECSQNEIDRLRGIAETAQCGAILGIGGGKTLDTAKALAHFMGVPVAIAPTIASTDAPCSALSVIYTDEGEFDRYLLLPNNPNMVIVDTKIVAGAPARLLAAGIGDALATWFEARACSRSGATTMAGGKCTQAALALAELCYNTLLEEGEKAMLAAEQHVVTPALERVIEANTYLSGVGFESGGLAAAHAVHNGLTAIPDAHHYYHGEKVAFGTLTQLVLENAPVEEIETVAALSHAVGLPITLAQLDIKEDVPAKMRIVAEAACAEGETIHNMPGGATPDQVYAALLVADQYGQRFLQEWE

SoxR = molecular target: T3, SoxR (E. coli K-12, UniProt P0ACS2 1-154)
T3 construct: SoxR, E. coli K-12
T3 sequence (looked up): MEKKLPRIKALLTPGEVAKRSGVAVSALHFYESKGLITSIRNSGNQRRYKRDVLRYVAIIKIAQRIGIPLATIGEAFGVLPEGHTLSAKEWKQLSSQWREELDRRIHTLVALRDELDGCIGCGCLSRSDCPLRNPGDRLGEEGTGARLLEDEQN

YqhC = molecular target: T4, YqhC (E. coli K-12, UniProt Q46855 1-318)
T4 construct: YqhC, E. coli K-12
T4 sequence (looked up): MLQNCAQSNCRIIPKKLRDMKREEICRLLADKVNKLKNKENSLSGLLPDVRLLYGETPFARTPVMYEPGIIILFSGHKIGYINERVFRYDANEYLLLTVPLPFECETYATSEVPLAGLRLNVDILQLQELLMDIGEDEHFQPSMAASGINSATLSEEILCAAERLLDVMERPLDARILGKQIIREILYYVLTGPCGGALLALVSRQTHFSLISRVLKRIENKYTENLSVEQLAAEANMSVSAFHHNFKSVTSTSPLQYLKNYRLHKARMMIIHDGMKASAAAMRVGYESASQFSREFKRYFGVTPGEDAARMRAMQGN

YjfW = molecular target: T5, YjfW (E. coli K-12, UniProt P39305 1-284)
T5 construct: YjfW, E. coli K-12
T5 sequence (looked up): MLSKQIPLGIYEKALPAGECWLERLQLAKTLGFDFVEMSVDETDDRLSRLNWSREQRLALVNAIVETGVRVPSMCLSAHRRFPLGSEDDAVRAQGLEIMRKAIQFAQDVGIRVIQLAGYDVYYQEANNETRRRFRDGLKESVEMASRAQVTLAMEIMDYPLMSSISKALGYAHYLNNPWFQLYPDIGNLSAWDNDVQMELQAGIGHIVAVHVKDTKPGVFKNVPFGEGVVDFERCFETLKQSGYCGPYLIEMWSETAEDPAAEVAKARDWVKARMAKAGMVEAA

RfaD = molecular target: T6, RfaD (E. coli K-12, UniProt P67910 1-310)
T6 construct: RfaD, E. coli K-12
T6 sequence (looked up): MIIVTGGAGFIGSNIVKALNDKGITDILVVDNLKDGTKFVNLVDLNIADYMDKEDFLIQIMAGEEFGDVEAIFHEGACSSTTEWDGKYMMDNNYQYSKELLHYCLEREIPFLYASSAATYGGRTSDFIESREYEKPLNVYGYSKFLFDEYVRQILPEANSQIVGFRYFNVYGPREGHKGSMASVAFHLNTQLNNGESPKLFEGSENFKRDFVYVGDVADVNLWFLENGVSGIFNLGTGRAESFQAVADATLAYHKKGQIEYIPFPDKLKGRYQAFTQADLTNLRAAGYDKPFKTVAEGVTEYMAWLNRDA

Measured: binding result

B1: N-terminal biotinylated Lactoferricin B (peptide, UniProt P24627 36-60, looked up)
peptide: Biotin-FKCRRWQWRMKKLGAPSITCVRRAF
modifications: ends and bridges not checked
notes: lactoferricin B (LfcinB), cationic antimicrobial peptide of 25 amino acids; also called biotinylated LfcinB; biotin-labeled LfcinB; source: bought: Kelowna Inc
binds: all assays above
